Reference: article PMC5518878

Target: Rhodopsin
Experiment: Tango assay
Details: read off a plot

Row | response (ATR, parent: est. 0.39) | response (vehicle, parent: est. 0.08) | Substance
1 | 0.71 | 0.18 | human GRK1, full length, fused to the N-terminus of TEV protease (from UniProt Q15835) K46L
2 | 0.77 | 0.2 | human GRK1, full length, fused to the N-terminus of TEV protease (from UniProt Q15835) K46W
3 | 0.76 | 0.17 | human GRK1, full length, fused to the N-terminus of TEV protease (from UniProt Q15835) K46Y
